Changes are numbered by the printed parent chain.

First the molecules themselves.
B1: Kp3 (antibody, IgG1, V domains shown)
VH: QVQLQESGPGLVKPSETLSLTCTVSGGSMNSNSNTYYWGWIRQPPGKGLEWIGTIHSSGRTYYNPSLKSRVTISVDMSKNQFSLNLTSATAADTAVYYCARDLSGASLAPRRPFNYYYYNMDVWGRGTLVTVSS
VL: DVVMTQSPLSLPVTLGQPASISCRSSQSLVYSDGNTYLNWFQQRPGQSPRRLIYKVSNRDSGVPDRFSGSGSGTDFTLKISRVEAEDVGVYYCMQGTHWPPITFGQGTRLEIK
notes: constant regions are not; also called anti-MrkA mAb Kp3; MAb Kp3
B2: Kp16 (antibody, V domains shown)
VH: QVQLQQSGAEVKKPGASVKVSCKASGYALTTYYMHWVRQAPGQGLQWMGMINPSSGSTIYAQPFRGRVTLTRDTSSGTVFMDLSSLTSEDTAIYYCARGNYGSSFGYWGKGTMVTVSS
VL: not shown
B3: anti-MrkA clone 5 (IgG1) (antibody, V domains shown)
VH: QVQLVQSGAEVKKPGASLKVSCKASGYTFTAYYMHWVRQAPGHGLEWMGWINPSSGGTNSAQKFQGRVTMTRDTSINTAYMELSRLTSDDTAVYYCARGTIGAAGNYWGQGTLVTVSS
VL: QSVLTQPPSASGTPGQRVTISCSGSRPNIGGNTVNWYQQLPGAAPKLLIYSNSQRPSGVPDRFSGSKYGTSASLAISGLQSDDEADYYCAAWDDSLTGPVFGGGTKLTIL
notes: also called St3_C5; IgG clone 5
B4: anti-MrkA clone 6 (IgG1) (antibody, V domains shown)
VH: QVQLVQSGAEVRKPGASVTLSCRTSGYTFTSYAVHWVRQAPGQGLEWMGGVNGGNGNTRFSQKFQDRLMIVRDRSANTASMELRSLTSEDTAVYYCARADDCSGVGCHPWFDPWGQGTLVTVSS
VL: SVILTQPPSVSVSPGQTANITCSGDKLGDKYTSWYLQKPGQSPVLLIFQDTKRPSDIPERFSGSNSGNTATLTISGTQAVDEADYYCQAWDSDSGTATFGGGTKLTVL
notes: also called St4_C6; IgG clone 6
B5: anti-MrkA clone 1 (IgG1) (antibody, V domains shown)
VH: B4 VH with L20V, S21F, T28I, V51I, F60I, K63R, V71T, V93I, Q116R
VL: QSVLTQPPSVSVSPGHTASITCSGDKLGDKYVSWYQQKSGQSPVLVMYKDTKRPSGIPERFSGSNSGNTATLAISGTQAVDEADYFCQAWDRSIMIFGGGTKVTVL
notes: also called St1_C1; IgG clone 1
B6: anti-MrkA clone 4 (IgG1) (antibody, V domains shown)
VH: QLQLQESGPGLVKPSGTLSLTCAVSGDSIDNANWWSWVRQTPGKGLEWIGEIYHSGTTYYNPSLKSRVTISIDNSKNQFSLALTSVTAADTAVYYCARDRDITSRGTFDVWGRGTMVTVSS
VL: DIQMTQSPSTLSASIGDRVTITCRASEGIYHWLAWYQQKPGKAPKLLIYKASSLASGAPSRFSGSGSGTDFTLTISSLQPDDFATYYCQQYSNYPLTFGGGTKLEIK
notes: also called St2_C4; IgG clone 4
B7: Clone 5 Fab (Fab, V domains shown)
VH: B3 VH
VL: B3 VL
notes: also called Clone 5 (Fab format)
B8: Clone 1 Fab (Fab, V domains shown)
VH: B4 VH with L20V, S21F, T28I, V51I, F60I, K63R, V71T, V93I, Q116R
VL: B5 VL
notes: also called Clone 1 (Fab format)

In the first assay the target is T1, MrkA on the surface of live or whole K. pneumoniae bacteria (Klebsiella pneumoniae, UniProt P12267 23-202).
T1 construct: Target of whole-bacteria ELISA, FACS and confocal assays; The strain is named under assay in each row; On bacteria MrkA is assembled into fimbriae (oligomeric); also called K. pneumoniae MrkA; type III fimbriae major subunit MrkA
T1 chain: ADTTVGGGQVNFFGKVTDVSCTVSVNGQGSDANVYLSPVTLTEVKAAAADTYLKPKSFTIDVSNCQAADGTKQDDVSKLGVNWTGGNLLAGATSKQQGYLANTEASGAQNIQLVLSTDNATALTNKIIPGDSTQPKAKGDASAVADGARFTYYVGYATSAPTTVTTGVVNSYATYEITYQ
Description: whole cell ELISA on K. pneumoniae strain 29011 (title: Kp29011 ELISA).
Description: Briefly, a single colony of K. pneumoniae was inoculated into 2xYT media until the culture reached log phase. Bacteria were coated onto 384-well plates (Nunc MaxiSorp) overnight at 4° C. […] After blocking with PBS supplemented with 4% BSA (PBS-B), the coated plates were incubated with anti-K. pneumoniae antibodies for 1 h. The plates were then washed with PBS-T (PBS+0.1% Tween 20) before HRP-conjugated secondary antibody was added for 1 h followed by washing and TMB (3, 3′, 5, 5′-Tetrametheylbenzidine) substrate addition. Color development was stopped by adding 0.1 N HCL, and the absorbance at 450 nm was measured by microplate reader (Molecular Devices). The data was plotted with Prism software.
What is called EC50 (read off the curve) is the concentration needed to bring the measured effect to its halfway point. Regarding B1, the “EC50 (read off the curve)” value is roughly 0.08 µg/mL.

Take B2: the “EC50 (read off the curve)” value is roughly 0.08 µg/mL.

A further assay has as its target T2, biotinylated recombinant his-tagged MrkA, mixture of monomeric and oligomeric MrkA (Klebsiella pneumoniae, UniProt P12267 23-202, biotin-labeled (Pierce kit; sites not stated)).
T2 construct: also called biotinylated-MrkA; a mixture of monomeric and multimeric MrkA; not shown: his tag
T2 chain: T1 chain
Nature of the assay: ELISA, MrkA protein coated directly onto the plate, not biotinylated (title: anti-MrkA IgG binding to MrkA). In general terms: In an ELISA, binding on a coated surface is turned into a signal by an enzyme label.
As to B3, the “EC50 (read off the curve)” value is roughly 0.01 µg/mL.

As to B4, the “EC50 (read off the curve)” value was roughly 0.01 µg/mL.

Regarding B5, the “EC50 (read off the curve)” value was roughly 0.01 µg/mL.

As for B6, the “EC50 (read off the curve)” value is roughly 0.01 µg/mL.

In the case of B1, the “EC50 (read off the curve)” value was roughly 0.01 µg/mL.

The target of a further assay is T2, biotinylated recombinant his-tagged …. Nature of the assay: BLI (Octet), biotinylated MrkA on streptavidin sensors, IgG in solution, 1:1 fit.
Description: For affinity measurement, two different formats were used. The first used an IgG against a mixture of monomeric and oligomeric MrkA. The second used a Fab against a monomeric MrkA. A ForteBio Octet QK384 instrument was used to study kinetics of the anti-MrkA mAbs. All the assays were done at 200 μl/well in ForteBio 10× kinetic buffer at 30° C. […] Dissociation of the interaction was probed for 600 seconds. Any systematic baseline drift was corrected by subtracting the shift recorded for a sensor loaded with ligand but incubated without analyte. Octet Data Analysis software version 8.0 was used for curve fitting with the binding equations available for a 1:1 interaction model. Global analyses were done using nonlinear least squares fitting. Goodness of fit for the data were assessed by the generated residual plots, R2 and χ2 values.
By Kd is commonly meant the equilibrium constant for the complex coming apart. By koff is commonly meant the rate constant with which the complex falls apart. Usually kon stands for the rate constant with which the complex forms. With B3, the Kd amounted to 3.54 nM, the koff came to 9.2e-05 s⁻¹ and the on-rate (kon) was found to be 26000 M⁻¹ s⁻¹.

Regarding B4, the equilibrium dissociation constant (Kd) was determined as 8.8 nM, the koff was found to be 0.0002 s⁻¹ and the kon was found to be 22000 M⁻¹ s⁻¹.

For B5, the equilibrium dissociation constant (Kd) turned out to be 3.25 nM, the off-rate (koff) is 0.00017 s⁻¹ and the kon was 53000 M⁻¹ s⁻¹.

Regarding B6, the Kd is 3.61 nM, the koff was 0.000146 s⁻¹ and the kon is 40600 M⁻¹ s⁻¹.

As for B1, the Kd came to 0.15 nM, the koff came out at 1.2e-05 s⁻¹ and the on-rate constant (kon) was determined as 76000 M⁻¹ s⁻¹.

A further assay concerns the target T3, MrkA with a 40 amino acid N-terminal deletion (MrkA-N-dlt) (Klebsiella pneumoniae, UniProt P12267 41-202).
T3 construct: Lysate of E. coli coated on the ELISA plate; not shown: His tag added at the C terminus
T3 chain: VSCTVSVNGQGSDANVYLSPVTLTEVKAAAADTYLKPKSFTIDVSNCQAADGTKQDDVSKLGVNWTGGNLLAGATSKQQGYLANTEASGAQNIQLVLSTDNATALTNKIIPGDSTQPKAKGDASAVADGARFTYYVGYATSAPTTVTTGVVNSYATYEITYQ
Description: ELISA on plates coated directly with cleared lysate of E. coli expressing the His-tagged construct; y axis without a label.
In the case of B1, the binding result is recorded as “no binding”.

In a further assay the target is T4, MrkA with both the N and C terminal deletions (MrkA-N/C-dlt) (Klebsiella pneumoniae, UniProt P12267 41-170).
T4 construct: Lysate of E. coli coated on the ELISA plate; not shown: His tag added at the C terminus
T4 chain: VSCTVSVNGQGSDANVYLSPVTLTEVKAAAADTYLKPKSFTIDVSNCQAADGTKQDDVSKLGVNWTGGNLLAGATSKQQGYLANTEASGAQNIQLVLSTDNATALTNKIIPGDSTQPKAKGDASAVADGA
The description is as above.
On to B1, for which the binding result is recorded as “no binding”.

In another assay the target is T2, biotinylated recombinant his-tagged …. Nature of the assay: ELISA, biotinylated MrkA captured by streptavidin (title: anti-MrkA IgG binding to bio-MrkA).
Regarding B3, the “EC50 (read off the curve)” value is roughly 0.2 µg/mL.

As for B4, the “EC50 (read off the curve)” value is roughly 0.01 µg/mL.

For the molecule B5, the 50% effective concentration (EC50 (read off the curve)) was roughly 0.01 µg/mL.

Regarding B6, the concentration giving a half-maximal response (EC50 (read off the curve)) is roughly 0.1 µg/mL.

Regarding B1, the “EC50 (read off the curve)” value is roughly 0.01 µg/mL.

The target of a further assay is T5, monomeric MrkA (purified, BLI) (Klebsiella pneumoniae, UniProt P12267 23-202).
T5 construct: not shown: N terminal 6x his tag from pET28
T5 chain: T1 chain
Description: BLI (Octet), Fab against monomeric MrkA.
The molecule B7 displayed an equilibrium dissociation constant (Kd) of 1520 nM, a koff of 0.0782 s⁻¹ and an on-rate (kon) of 50000 M⁻¹ s⁻¹.

Regarding B8, binding was characterised by a dissociation constant (Kd) of 2.76 nM, the koff was found to be 0.00034 s⁻¹ and the kon was 150000 M⁻¹ s⁻¹.
